In patent publication CN117603356A (HAIBO HUAJIAN HUZHOU PHARMACEUTICAL TECH CO LTD, dated 2024):

Target: T1, Human-pIgR-ECD-his抗原重组蛋白 (human, UniProt P01833 19-638)
T1 construct: extracellular domain; Recombinant antigen coated on the ELISA plate (200 ng/well); also called PI蛋白; not shown: his tag
Assay: ELISA, antigen coated, anti-human IgG Fc HRP

T1 sequence (P01833 19-638): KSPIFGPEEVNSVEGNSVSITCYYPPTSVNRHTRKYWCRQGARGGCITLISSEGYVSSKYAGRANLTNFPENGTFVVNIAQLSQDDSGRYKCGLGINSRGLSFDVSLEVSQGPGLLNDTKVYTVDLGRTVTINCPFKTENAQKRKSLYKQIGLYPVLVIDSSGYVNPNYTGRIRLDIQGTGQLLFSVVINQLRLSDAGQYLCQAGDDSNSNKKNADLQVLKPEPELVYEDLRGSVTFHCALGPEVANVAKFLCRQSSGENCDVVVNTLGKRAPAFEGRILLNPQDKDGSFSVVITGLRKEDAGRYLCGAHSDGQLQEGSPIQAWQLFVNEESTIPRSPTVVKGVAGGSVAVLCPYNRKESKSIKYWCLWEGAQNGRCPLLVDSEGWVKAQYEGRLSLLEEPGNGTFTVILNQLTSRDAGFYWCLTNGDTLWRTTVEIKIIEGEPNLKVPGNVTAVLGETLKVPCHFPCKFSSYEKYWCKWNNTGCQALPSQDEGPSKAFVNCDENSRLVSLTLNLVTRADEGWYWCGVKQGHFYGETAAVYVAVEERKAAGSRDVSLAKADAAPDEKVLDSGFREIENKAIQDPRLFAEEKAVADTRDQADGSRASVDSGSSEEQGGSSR

Row | binding result | Binder
1 | binds | PI-19-hFc (Fc fusion, VHH inserted into the pFCIG-hIgG1 plasmid, expressed in HEK293F; also called 单克隆PI-19-hFc; not shown: human IgG1 Fc fragment (hFC) from the bought expression plasmid pFCIG-hIgG1) EVQLVESGGGSVQAGGSLRLSCAASGITISNNCMGWFRQAPGKEREGVALLYSTSSTSSQKSHADSVKGRFTISRDNAKNTVYLQMNSLKPEDSAMYYCAAKSGVCRWNWEYGMDYWDWGKGTLVTISS
2 | binds | PI-74-hFc (Fc fusion, VHH inserted into the pFCIG-hIgG1 plasmid, expressed in HEK293F; also called 单克隆PI-74-hFc; not shown: human IgG1 Fc fragment (hFC) from the bought expression plasmid pFCIG-hIgG1) EVKLVESGGGSVQAGGSLRLSCTASGPTYGRTCMGWFRQAPGREREGVATIETKGLTRYTYYADSVKGRFTISQDDAKNTLYLQMNSLKPEDTAMYYCAADGPGCSGGAFIARGRWYPHWGQGTQVTVSS
3 | binds | PI-21-hFc (Fc fusion, VHH inserted into the pFCIG-hIgG1 plasmid, expressed in HEK293F; also called 单克隆PI-21-hFc; not shown: human IgG1 Fc fragment (hFC) from the bought expression plasmid pFCIG-hIgG1) QVKLVQSGGGLVQPGGSLRLSCAASGFTFENYAMGWLRQAPGEGLEWVSSINYNGDVTAYTTSVKGRFTVSRDNAKNTLYLQLNDLKIDDTAMYYCAKGRYGWALSREDYNTRGQGTQVTVSS
4 | binds | PI-28-hFc (Fc fusion, VHH inserted into the pFCIG-hIgG1 plasmid, expressed in HEK293F; also called 单克隆PI-28-hFc; not shown: human IgG1 Fc fragment (hFC) from the bought expression plasmid pFCIG-hIgG1) EVKLVESGGGSVQAGGSLRLSCAASGYTYSSACMGWFRQAPGKERDWVALIDGIGSTTYTDSVKGRFTISQDNAKNTLYLQMNSLKPEDTATYYCAADLLSGGYCHPVGGGARDWGGPVVADFTYWGQGTQVTVSS
